Laboratory results: patent US20190233493A1 (Sanofi, published 2019)
*1 amine or outer side, *2 acyl side, *3 side chain or, on linkers, in order; H or OH if unused. Primed or numbered codes have the meaning given here. Side-chain parts run from the residue outwards. [ ]: non-standard residue; d: D form. The star is where a group is joined. TTDS = 4-[3-[2-[2-(3-aminopropoxy)ethoxy]ethoxy]propylamino]-4-oxo-butanoyl, O=C(CCC(=O)[*:2])NCCCOCCOCCOCCCN[*:1]; TTDS″ = 4-[3-[2-[2-(3-aminopropoxy)ethoxy]ethoxy]propylamino]-4-oxo-butanoyl; PEG12 = NCCOCCOCCOCCOCCOCCOCCOCCOCCOCCOCCOCCOCCC(=O)O; TtdDga = O=C(COCC(=O)[*:2])NCCCOCCOCCOCCCN[*:1]; γGlu = O=C(O)[C@H](CCC(=O)[*:2])N[*:1]; Pentadecanoyl = CCCCCCCCCCCCCCC(=O)*; Stearoyl = CCCCCCCCCCCCCCCCCC(=O)*; Palmitoyl = CCCCCCCCCCCCCCCC(=O)*; Myristoyl = CCCCCCCCCCCCCC(=O)*; αMeK = C[C@](N)(CCCCN)C(=O)O; Nle = CCCC[C@H](N)C(=O)O; PEG2′ = PEG2 spacer unit; Aib = CC(C)(N)C(=O)O

T1: RXFP1 receptor (UniProt Q9HBX9 1-757, limits assumed)
T1 sequence (looked up): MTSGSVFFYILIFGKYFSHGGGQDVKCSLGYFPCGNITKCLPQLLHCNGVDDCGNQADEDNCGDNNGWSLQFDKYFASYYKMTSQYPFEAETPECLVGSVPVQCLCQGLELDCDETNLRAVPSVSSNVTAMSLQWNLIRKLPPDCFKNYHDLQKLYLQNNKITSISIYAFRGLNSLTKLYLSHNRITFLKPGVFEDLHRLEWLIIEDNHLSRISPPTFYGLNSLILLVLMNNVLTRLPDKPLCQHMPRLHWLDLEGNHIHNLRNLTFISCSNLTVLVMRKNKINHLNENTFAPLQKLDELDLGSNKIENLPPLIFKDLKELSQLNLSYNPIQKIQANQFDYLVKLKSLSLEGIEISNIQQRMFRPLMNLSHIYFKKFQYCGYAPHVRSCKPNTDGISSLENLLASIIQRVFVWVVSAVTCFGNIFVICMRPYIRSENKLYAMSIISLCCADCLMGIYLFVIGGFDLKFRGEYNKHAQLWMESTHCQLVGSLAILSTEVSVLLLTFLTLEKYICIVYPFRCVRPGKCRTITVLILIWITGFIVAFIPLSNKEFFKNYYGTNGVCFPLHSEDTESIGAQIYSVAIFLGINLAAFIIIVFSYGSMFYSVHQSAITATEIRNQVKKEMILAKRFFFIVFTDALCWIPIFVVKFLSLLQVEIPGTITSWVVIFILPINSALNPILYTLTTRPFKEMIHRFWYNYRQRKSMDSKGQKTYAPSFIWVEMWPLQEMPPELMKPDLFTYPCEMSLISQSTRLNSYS

B1: peptide of SEQ ID NO: 188 (peptide)
peptide: Ac-LEGREKVRAK(Ac)I[Aib][Aib]EG[Nle]STFS[αMeK]RAK(Ac)[TTDS][TTDS][TTDS]K([γGlu-γGlu-γGlu-Pentadecanoyl])-NH2
SMILES: CCCCCCCCCCCCCCC(=O)N[C@@H](CCC(=O)N[C@@H](CCC(=O)N[C@@H](CCC(=O)NCCCC[C@H](NC(=O)CCC(=O)NCCCOCCOCCOCCCNC(=O)CCC(=O)NCCCOCCOCCOCCCNC(=O)CCC(=O)NCCCOCCOCCOCCCNC(=O)[C@H](CCCCNC(C)=O)NC(=O)[C@H](C)NC(=O)[C@H](CCCNC(=N)N)NC(=O)[C@](C)(CCCCN)NC(=O)[C@H](CO)NC(=O)[C@H](Cc1ccccc1)NC(=O)[C@@H](NC(=O)[C@H](CO)NC(=O)[C@H](CCCC)NC(=O)CNC(=O)[C@H](CCC(=O)O)NC(=O)C(C)(C)NC(=O)C(C)(C)NC(=O)[C@@H](NC(=O)[C@H](CCCCNC(C)=O)NC(=O)[C@H](C)NC(=O)[C@H](CCCNC(=N)N)NC(=O)[C@@H](NC(=O)[C@H](CCCCN)NC(=O)[C@H](CCC(=O)O)NC(=O)[C@H](CCCNC(=N)N)NC(=O)CNC(=O)[C@H](CCC(=O)O)NC(=O)[C@H](CC(C)C)NC(C)=O)C(C)C)[C@@H](C)CC)[C@@H](C)O)C(N)=O)C(=O)O)C(=O)O)C(=O)O
B2: peptide of SEQ ID NO: 22 (peptide)
peptide: Ac-LEGREKVRAQI[Aib][Aib]EG[Nle]STWS[Aib]RKK[PEG12]K([γGlu-Stearoyl])-NH2
SMILES: CCCCCCCCCCCCCCCCCC(=O)N[C@@H](CCC(=O)NCCCC[C@H](NC(=O)CCOCCOCCOCCOCCOCCOCCOCCOCCOCCOCCOCCOCCNC(=O)[C@H](CCCCN)NC(=O)[C@H](CCCCN)NC(=O)[C@H](CCCNC(=N)N)NC(=O)C(C)(C)NC(=O)[C@H](CO)NC(=O)[C@H](Cc1c[nH]c2ccccc12)NC(=O)[C@@H](NC(=O)[C@H](CO)NC(=O)[C@H](CCCC)NC(=O)CNC(=O)[C@H](CCC(=O)O)NC(=O)C(C)(C)NC(=O)C(C)(C)NC(=O)[C@@H](NC(=O)[C@H](CCC(N)=O)NC(=O)[C@H](C)NC(=O)[C@H](CCCNC(=N)N)NC(=O)[C@@H](NC(=O)[C@H](CCCCN)NC(=O)[C@H](CCC(=O)O)NC(=O)[C@H](CCCNC(=N)N)NC(=O)CNC(=O)[C@H](CCC(=O)O)NC(=O)[C@H](CC(C)C)NC(C)=O)C(C)C)[C@@H](C)CC)[C@@H](C)O)C(N)=O)C(=O)O
B3: peptide of SEQ ID NO: 20 (peptide)
peptide: Ac-LEGREKVRAK(Ac)I[Aib][Aib]EG[Nle]STWS[Aib]RKK(Ac)[TtdDga][TtdDga][TtdDga]K([γGlu-γGlu-γGlu-Stearoyl])-NH2
SMILES: CCCCCCCCCCCCCCCCCC(=O)N[C@@H](CCC(=O)N[C@@H](CCC(=O)N[C@@H](CCC(=O)NCCCC[C@H](NC(=O)COCC(=O)NCCCOCCOCCOCCCNC(=O)COCC(=O)NCCCOCCOCCOCCCNC(=O)COCC(=O)NCCCOCCOCCOCCCNC(=O)[C@H](CCCCNC(C)=O)NC(=O)[C@H](CCCCN)NC(=O)[C@H](CCCNC(=N)N)NC(=O)C(C)(C)NC(=O)[C@H](CO)NC(=O)[C@H](Cc1c[nH]c2ccccc12)NC(=O)[C@@H](NC(=O)[C@H](CO)NC(=O)[C@H](CCCC)NC(=O)CNC(=O)[C@H](CCC(=O)O)NC(=O)C(C)(C)NC(=O)C(C)(C)NC(=O)[C@@H](NC(=O)[C@H](CCCCNC(C)=O)NC(=O)[C@H](C)NC(=O)[C@H](CCCNC(=N)N)NC(=O)[C@@H](NC(=O)[C@H](CCCCN)NC(=O)[C@H](CCC(=O)O)NC(=O)[C@H](CCCNC(=N)N)NC(=O)CNC(=O)[C@H](CCC(=O)O)NC(=O)[C@H](CC(C)C)NC(C)=O)C(C)C)[C@@H](C)CC)[C@@H](C)O)C(N)=O)C(=O)O)C(=O)O)C(=O)O
B4: peptide of SEQ ID NO: 23 (peptide)
peptide: Ac-LEGREKVRAQI[Aib][Aib]EGMSTWS[Aib]RK[PEG12]K([γGlu-γGlu-γGlu-Palmitoyl])-NH2
SMILES: CCCCCCCCCCCCCCCC(=O)N[C@@H](CCC(=O)N[C@@H](CCC(=O)N[C@@H](CCC(=O)NCCCC[C@H](NC(=O)CCOCCOCCOCCOCCOCCOCCOCCOCCOCCOCCOCCOCCNC(=O)[C@H](CCCCN)NC(=O)[C@H](CCCNC(=N)N)NC(=O)C(C)(C)NC(=O)[C@H](CO)NC(=O)[C@H](Cc1c[nH]c2ccccc12)NC(=O)[C@@H](NC(=O)[C@H](CO)NC(=O)[C@H](CCSC)NC(=O)CNC(=O)[C@H](CCC(=O)O)NC(=O)C(C)(C)NC(=O)C(C)(C)NC(=O)[C@@H](NC(=O)[C@H](CCC(N)=O)NC(=O)[C@H](C)NC(=O)[C@H](CCCNC(=N)N)NC(=O)[C@@H](NC(=O)[C@H](CCCCN)NC(=O)[C@H](CCC(=O)O)NC(=O)[C@H](CCCNC(=N)N)NC(=O)CNC(=O)[C@H](CCC(=O)O)NC(=O)[C@H](CC(C)C)NC(C)=O)C(C)C)[C@@H](C)CC)[C@@H](C)O)C(N)=O)C(=O)O)C(=O)O)C(=O)O
B5: peptide of SEQ ID NO: 21 (peptide)
peptide: Ac-LEGREKVRAQI[Aib][Aib]EG[Nle]STWS[Aib]RKK(Ac)[PEG12]K(Stearoyl)-NH2
SMILES: CCCCCCCCCCCCCCCCCC(=O)NCCCC[C@H](NC(=O)CCOCCOCCOCCOCCOCCOCCOCCOCCOCCOCCOCCOCCNC(=O)[C@H](CCCCNC(C)=O)NC(=O)[C@H](CCCCN)NC(=O)[C@H](CCCNC(=N)N)NC(=O)C(C)(C)NC(=O)[C@H](CO)NC(=O)[C@H](Cc1c[nH]c2ccccc12)NC(=O)[C@@H](NC(=O)[C@H](CO)NC(=O)[C@H](CCCC)NC(=O)CNC(=O)[C@H](CCC(=O)O)NC(=O)C(C)(C)NC(=O)C(C)(C)NC(=O)[C@@H](NC(=O)[C@H](CCC(N)=O)NC(=O)[C@H](C)NC(=O)[C@H](CCCNC(=N)N)NC(=O)[C@@H](NC(=O)[C@H](CCCCN)NC(=O)[C@H](CCC(=O)O)NC(=O)[C@H](CCCNC(=N)N)NC(=O)CNC(=O)[C@H](CCC(=O)O)NC(=O)[C@H](CC(C)C)NC(C)=O)C(C)C)[C@@H](C)CC)[C@@H](C)O)C(N)=O
B6: peptide of SEQ ID NO: 187 (peptide)
peptide: Ac-LEGREKVRAK(Ac)I[Aib][Aib]EG[Nle]STFS[αMeK]RAK(Ac)[TTDS][TTDS][TTDS]K([γGlu-γGlu-γGlu-Palmitoyl])-NH2
SMILES: CCCCCCCCCCCCCCCC(=O)N[C@@H](CCC(=O)N[C@@H](CCC(=O)N[C@@H](CCC(=O)NCCCC[C@H](NC(=O)CCC(=O)NCCCOCCOCCOCCCNC(=O)CCC(=O)NCCCOCCOCCOCCCNC(=O)CCC(=O)NCCCOCCOCCOCCCNC(=O)[C@H](CCCCNC(C)=O)NC(=O)[C@H](C)NC(=O)[C@H](CCCNC(=N)N)NC(=O)[C@](C)(CCCCN)NC(=O)[C@H](CO)NC(=O)[C@H](Cc1ccccc1)NC(=O)[C@@H](NC(=O)[C@H](CO)NC(=O)[C@H](CCCC)NC(=O)CNC(=O)[C@H](CCC(=O)O)NC(=O)C(C)(C)NC(=O)C(C)(C)NC(=O)[C@@H](NC(=O)[C@H](CCCCNC(C)=O)NC(=O)[C@H](C)NC(=O)[C@H](CCCNC(=N)N)NC(=O)[C@@H](NC(=O)[C@H](CCCCN)NC(=O)[C@H](CCC(=O)O)NC(=O)[C@H](CCCNC(=N)N)NC(=O)CNC(=O)[C@H](CCC(=O)O)NC(=O)[C@H](CC(C)C)NC(C)=O)C(C)C)[C@@H](C)CC)[C@@H](C)O)C(N)=O)C(=O)O)C(=O)O)C(=O)O

Target: T1, RXFP1 receptor
Test: cell-based or functional assay

Binder	EC50 (nM), OVCAR 5 cells (cAMP)	EMax, OVCAR 5 cells (cAMP)
Ac-LEGREKVRAK(Ac)I[Aib][Aib]EG[Nle]STFS[αMeK]RAK(Ac)[PEG2′][PEG2′][PEG2′][PEG2′]K([γGlu-γGlu-γGlu-Palmitoyl])-NH2 [peptide of SEQ ID NO: 192]	0.62 nM	91%
Ac-LEGREKVRAK(Ac)I[Aib][Aib]EGQSTFS[αMeK]RAK(Ac)K([PEG2′-PEG2′-PEG2′-PEG2′-γGlu-γGlu-γGlu-γGlu-Palmitoyl])-NH2 [peptide of SEQ ID NO: 191]	0.17 nM	93%
Ac-LEGREKVRAK(Ac)I[Aib][Aib]EGQSTFS[αMeK]RAK(Ac)K([TTDS″-TTDS″-TTDS″-γGlu-γGlu-γGlu-Pentadecanoyl])-NH2 [peptide of SEQ ID NO: 189]	0.42 nM	100%
B1	0.75 nM	100%
B2	21.4 nM	104%
B3	0.45 nM	88%
B4	3.62 nM	89%
B5	38.6 nM	88%
Ac-LEGREKVRAK(Ac)I[Aib][Aib]EGQSTFS[αMeK]RAK(Ac)[PEG2′][PEG2′][PEG2′][PEG2′]K([γGlu-γGlu-γGlu-γGlu-Myristoyl])-NH2 [peptide of SEQ ID NO: 190]	1.29 nM	93%
B6	0.33 nM	100%
